The values that follow come from PMC7019923.

One series has as its target T1, squid p32 (AUF1 homolog) (Aedes albopictus (cDNA from C6/36 cells), UniProt A0A023EP16 2-301).
T1 sequence: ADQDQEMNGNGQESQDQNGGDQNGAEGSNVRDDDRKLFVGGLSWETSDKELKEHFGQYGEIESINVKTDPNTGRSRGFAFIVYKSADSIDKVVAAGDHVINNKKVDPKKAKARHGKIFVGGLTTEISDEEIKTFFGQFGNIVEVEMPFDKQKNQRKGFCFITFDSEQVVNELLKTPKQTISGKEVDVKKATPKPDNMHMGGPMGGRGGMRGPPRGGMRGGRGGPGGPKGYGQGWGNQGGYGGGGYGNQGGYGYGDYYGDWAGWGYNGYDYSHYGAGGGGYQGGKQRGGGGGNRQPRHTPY
The experiment in a line: fluorescence intensity titration. The settings on record: protein: recombinant; tags: none after cleavage (SUMO fusion removed by SUMO protease).

In the next series the target is T2, squid p30 (AUF1 homolog) (Aedes albopictus (cDNA from C6/36 cells), UniProt A0ABM1XVA0 2-281).
T2 sequence: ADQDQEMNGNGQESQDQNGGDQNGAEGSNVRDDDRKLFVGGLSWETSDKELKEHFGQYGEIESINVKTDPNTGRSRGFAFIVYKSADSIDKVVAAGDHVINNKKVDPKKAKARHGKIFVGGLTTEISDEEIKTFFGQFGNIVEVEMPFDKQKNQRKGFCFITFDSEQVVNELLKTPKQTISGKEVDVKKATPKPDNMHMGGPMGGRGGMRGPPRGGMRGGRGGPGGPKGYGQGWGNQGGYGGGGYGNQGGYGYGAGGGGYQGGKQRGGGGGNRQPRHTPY
The experiment in a line: fluorescence intensity titration. The settings on record: protein: recombinant; tags: none after cleavage (SUMO fusion removed by SUMO protease).

Usually Kd stands for the equilibrium constant for the complex coming apart. As to CUAAGAUGCUCGCUGC (ssRNA) [random RNA], the dissociation constant Kd with squid p32 (AUF1 homolog) is 630 nM; with squid p30 (AUF1 homolog), 250 nM.
The like results for UAUUUAGUGGUGUUAG (ssRNA) [AU/GU-rich RNA] were, in that order, 130 nM and 13 nM.
